The results in this text go back to patent publication US20120135923A1, “Use of Melanocortins to Treat Dyslipidemia” (IPSEN PHARMA, S.A.S., priority 2009, published 2012).

Bridge positions count the residues as written; N and C are the ends. Square brackets hold non-standard residues; d marks the D form. Ends that are not written are not given here. Bip = N[C@@H](Cc1ccc(-c2ccccc2)cc1)C(=O)O; d2Nal = N[C@H](Cc1ccc2ccccc2c1)C(=O)O; Bta = N[C@@H](Cc1csc2ccccc12)C(=O)O; hArg = N=C(N)NCCCC[C@H](N)C(=O)O; Pen = CC(C)(S)[C@H](N)C(=O)O; Nle = CCCC[C@H](N)C(=O)O; Aib = CC(C)(N)C(=O)O; Ava = NCCCCC(=O)O; GABA = NCCCC(=O)O; βAla = NCCC(=O)O

Sequences and labels used below:
B1: Ac-Nle-c(Asp-D-Ala-His-D-Phe-Arg-Bal-Lys)-NH2 (peptide)
peptide: Ac-[Nle]D[dA]H[dF]R[Bta]K-NH2
modifications: lactam 2-8
SMILES: CCCC[C@H](NC(C)=O)C(=O)N[C@H]1CC(=O)NCCCC[C@@H](C(N)=O)NC(=O)[C@H](Cc2csc3ccccc23)NC(=O)[C@H](CCCNC(=N)N)NC(=O)[C@@H](Cc2ccccc2)NC(=O)[C@H](Cc2c[nH]cn2)NC(=O)[C@@H](C)NC1=O
B2: Ac-Nle-c(Cys-D-Leu-His-D-Phe-Arg-Trp-Cys)-NH2 (peptide)
peptide: Ac-[Nle]C[dL]H[dF]RWC-NH2
modifications: disulfide 2-8
SMILES: CCCC[C@H](NC(C)=O)C(=O)N[C@H]1CSSC[C@@H](C(N)=O)NC(=O)[C@H](Cc2c[nH]c3ccccc23)NC(=O)[C@H](CCCNC(=N)N)NC(=O)[C@@H](Cc2ccccc2)NC(=O)[C@H](Cc2c[nH]cn2)NC(=O)[C@@H](CC(C)C)NC1=O
B3: Ac-c(Cys-Glu-His-D-2-Nal-Arg-Bal-Ala-Cys)-Pro-Pro-Lys-Asp-β-Ala-Tyr-Aib-Arg-Lys-Lys-Arg-Arg-Gln-Arg-Arg-Arg-NH2 (peptide)
peptide: Ac-CEH[d2Nal]R[Bta]ACPPKD[βAla]Y[Aib]RKKRRQRRR-NH2
modifications: disulfide 1-8
SMILES: CC(=O)N[C@H]1CSSC[C@@H](C(=O)N2CCC[C@H]2C(=O)N2CCC[C@H]2C(=O)N[C@@H](CCCCN)C(=O)N[C@@H](CC(=O)O)C(=O)NCCC(=O)N[C@@H](Cc2ccc(O)cc2)C(=O)NC(C)(C)C(=O)N[C@@H](CCCNC(=N)N)C(=O)N[C@@H](CCCCN)C(=O)N[C@@H](CCCCN)C(=O)N[C@@H](CCCNC(=N)N)C(=O)N[C@@H](CCCNC(=N)N)C(=O)N[C@@H](CCC(N)=O)C(=O)N[C@@H](CCCNC(=N)N)C(=O)N[C@@H](CCCNC(=N)N)C(=O)N[C@@H](CCCNC(=N)N)C(N)=O)NC(=O)[C@H](C)NC(=O)[C@H](Cc2csc3ccccc23)NC(=O)[C@H](CCCNC(=N)N)NC(=O)[C@@H](Cc2ccc3ccccc3c2)NC(=O)[C@H](Cc2c[nH]cn2)NC(=O)[C@H](CCC(=O)O)NC1=O
B4: Ac-Arg-c(Cys-His-D-Phe-Arg-Trp-Gaba-Pen)-NH2 (peptide)
peptide: Ac-RCH[dF]RW[GABA][Pen]-NH2
modifications: disulfide 2-8
SMILES: CC(=O)N[C@@H](CCCNC(=N)N)C(=O)N[C@H]1CSSC(C)(C)[C@@H](C(N)=O)NC(=O)CCCNC(=O)[C@H](Cc2c[nH]c3ccccc23)NC(=O)[C@H](CCCNC(=N)N)NC(=O)[C@@H](Cc2ccccc2)NC(=O)[C@H](Cc2c[nH]cn2)NC1=O
B5: Ac-c(Cys-Glu-His-D-2-Nal-Arg-Bal-Ala-Cys)-Pro-Pro-Lys-Asp-β-Ala-Tyr-Gly-Arg-Lys-Lys-Arg-Arg-Gln-Arg-Arg-Arg-NH2 (peptide)
peptide: CEHXRXACPPKDXYGRKKRRQRRR
modifications: N-terminal acetyl; X4=D-2-Nal; X6=Bal; X13=β-Ala; Cys1-Cys8 disulfide; C-terminal amide
B6: Ac-Nle-c(Cys-His-D-Phe-Arg-Trp-Apn-Cys)-NH2 (peptide)
peptide: Ac-[Nle]CH[dF]RW[Ava]C-NH2
modifications: disulfide 2-8
SMILES: CCCC[C@H](NC(C)=O)C(=O)N[C@H]1CSSC[C@@H](C(N)=O)NC(=O)CCCCNC(=O)[C@H](Cc2c[nH]c3ccccc23)NC(=O)[C@H](CCCNC(=N)N)NC(=O)[C@@H](Cc2ccccc2)NC(=O)[C@H](Cc2c[nH]cn2)NC1=O
B7: Nle-c(Cys-His-D-Phe-Arg-Trp-Apn-Cys)-NH2 (peptide)
peptide: [Nle]CH[dF]RW[Ava]C-NH2
modifications: disulfide 2-8; N-terminus assumed
SMILES: CCCC[C@H](N)C(=O)N[C@H]1CSSC[C@@H](C(N)=O)NC(=O)CCCCNC(=O)[C@H](Cc2c[nH]c3ccccc23)NC(=O)[C@H](CCCNC(=N)N)NC(=O)[C@@H](Cc2ccccc2)NC(=O)[C@H](Cc2c[nH]cn2)NC1=O
B8: Hydantoin(C(O)-(Arg-Gly))-c(Cys-D-Ala-His-D-2-Nal-Arg-Trp-Cys)-NH2 (peptide)
peptide: RGCAHXRWC
modifications: residues 1-2 joined in a hydantoin ring (C(O)); D-Ala4; X6=D-2-Nal; Cys3-Cys9 disulfide; C-terminal amide
B9: Ac-c(Cys-Glu-His-D-2-Nal-Arg-2-Nal-Ala-Cys)-Pro-Pro-Lys-Asp-β-Ala-Tyr-Gly-Arg-Lys-Lys-Arg-Arg-Gln-Arg-Arg-Arg-NH2 (peptide)
peptide: CEHXRXACPPKDXYGRKKRRQRRR
modifications: N-terminal acetyl; X4=D-2-Nal; X6=2-Nal; X13=β-Ala; Cys1-Cys8 disulfide; C-terminal amide
B10: Ac-D-Arg-c(Cys-His-D-Phe-Arg-Trp-Gaba-Pen)-NH2 (peptide)
peptide: Ac-[dR]CH[dF]RW[GABA][Pen]-NH2
modifications: disulfide 2-8
SMILES: CC(=O)N[C@H](CCCNC(=N)N)C(=O)N[C@H]1CSSC(C)(C)[C@@H](C(N)=O)NC(=O)CCCNC(=O)[C@H](Cc2c[nH]c3ccccc23)NC(=O)[C@H](CCCNC(=N)N)NC(=O)[C@@H](Cc2ccccc2)NC(=O)[C@H](Cc2c[nH]cn2)NC1=O

Chain of hMC1-R (human) (Q01726 whole entry): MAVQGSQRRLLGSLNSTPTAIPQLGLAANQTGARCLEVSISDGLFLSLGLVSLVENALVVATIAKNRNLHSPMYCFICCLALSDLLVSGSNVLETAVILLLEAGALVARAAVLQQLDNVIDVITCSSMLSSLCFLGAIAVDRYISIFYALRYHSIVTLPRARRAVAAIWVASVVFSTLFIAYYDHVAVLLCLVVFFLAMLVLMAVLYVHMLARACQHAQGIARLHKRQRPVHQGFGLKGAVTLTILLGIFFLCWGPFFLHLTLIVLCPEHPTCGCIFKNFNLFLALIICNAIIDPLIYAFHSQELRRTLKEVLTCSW

The first assay addresses hMC1-R (human) (UniProt Q01726). Put plainly: cell-based or functional assay.
B1 displayed a cAMP EC50 of 0.931 nM.
Turning to B2, the cAMP EC50 amounted to 3.24 nM.
[dF]CH[d(Et)Tyr][hArg][Bip][βAla][dC]T-NH2 (disulfide 2-8) [D-Phe-c(Cys-His-D-(Et)Tyr-hArg-Bip-β-Ala-D-Cys)-Thr-NH2] had a cAMP EC50 of 0.685 nM.
For B3, the cAMP EC50 was 67.1.
Molecule B4 displayed a cAMP EC50 of 4.23 nM.
With B5, the cAMP EC50 is 37.9.
Same read-out and setting: as for B6, the figure is 0.76 nM; as for B7, 0.31 nM; as for B8, 96.6 nM.
Molecule B9 yielded a cAMP EC50 of 29.7.
Turning to B10, the cAMP EC50 is 8.43 nM.

For a further assay, the target named is hMC5-R (human) (UniProt P33032). The experiment in a line: cell-based or functional assay.
Chain of hMC5-R (human) (P33032 whole entry): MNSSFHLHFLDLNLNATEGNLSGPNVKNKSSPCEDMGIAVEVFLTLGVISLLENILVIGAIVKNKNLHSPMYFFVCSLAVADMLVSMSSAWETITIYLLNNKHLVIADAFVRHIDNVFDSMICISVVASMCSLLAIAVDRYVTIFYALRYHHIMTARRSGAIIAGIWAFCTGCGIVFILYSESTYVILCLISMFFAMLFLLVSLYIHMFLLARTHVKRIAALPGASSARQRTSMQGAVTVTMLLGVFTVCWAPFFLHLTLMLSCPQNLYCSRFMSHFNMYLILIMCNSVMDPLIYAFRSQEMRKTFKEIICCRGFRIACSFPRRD
On to B1, for which the cAMP EC50 is > 10000 nM.
Consider B2, for which the cAMP EC50 was 78.5 nM.
Turning to [dF]CH[d(Et)Tyr][hArg][Bip][βAla][dC]T-NH2 (disulfide 2-8) [D-Phe-c(Cys-His-D-(Et)Tyr-hArg-Bip-β-Ala-D-Cys)-Thr-NH2], the cAMP EC50 is 31.8 nM.
Same read-out and setting: as for B3, the figure is 582 nM; as for B4, 23.2 nM.
On to B5, for which the cAMP EC50 is 1800 nM.
B6 displayed a cAMP EC50 of 1.73 nM.
B7 showed a cAMP EC50 of 3.1 nM.
Consider B8, for which the cAMP EC50 was 103 nM.
Molecule B9 came in with a cAMP EC50 of 82.9 nM.
The same measure, in the same setting: as for B10, the figure is 2140 nM.

For a further assay, the target named is hMC4-R (human) (UniProt P32245). The experiment in a line: cell-based or functional assay.
Chain of hMC4-R (human) (P32245 whole entry): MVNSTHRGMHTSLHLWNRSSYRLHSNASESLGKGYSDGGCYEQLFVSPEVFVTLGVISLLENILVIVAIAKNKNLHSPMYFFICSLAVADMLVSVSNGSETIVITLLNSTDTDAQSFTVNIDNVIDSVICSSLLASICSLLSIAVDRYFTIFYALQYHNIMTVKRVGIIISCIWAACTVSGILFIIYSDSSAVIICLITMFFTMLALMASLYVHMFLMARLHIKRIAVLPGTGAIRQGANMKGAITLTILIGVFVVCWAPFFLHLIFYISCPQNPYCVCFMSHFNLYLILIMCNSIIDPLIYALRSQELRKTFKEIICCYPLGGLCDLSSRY
On to B1, for which the cAMP EC50 turned out to be 1.65 nM.
Turning to B2, the cAMP EC50 was determined as 0.0915 nM.
Still for that read-out and setting: as for [dF]CH[d(Et)Tyr][hArg][Bip][βAla][dC]T-NH2 (disulfide 2-8) [D-Phe-c(Cys-His-D-(Et)Tyr-hArg-Bip-β-Ala-D-Cys)-Thr-NH2], the figure is 86.9 nM.
With B3, the cAMP Kb came out at 46.5.
B4 gave a cAMP EC50 of 0.719 nM.
B5 gave a cAMP Kb of 41.1.
As for B6, the cAMP EC50 is 0.0492 nM.
As to B7, the cAMP EC50 is 0.018 nM.
Same read-out and setting: as for B8, the figure is 21.2 nM.
The molecule B9 registered a cAMP Kb of 7.37.
The molecule B10 showed a cAMP EC50 of 0.959 nM.

In the next assay the target is hMC3-R (human) (UniProt P41968). The experiment in a line: cell-based or functional assay.
Chain of hMC3-R (human) (P41968 whole entry): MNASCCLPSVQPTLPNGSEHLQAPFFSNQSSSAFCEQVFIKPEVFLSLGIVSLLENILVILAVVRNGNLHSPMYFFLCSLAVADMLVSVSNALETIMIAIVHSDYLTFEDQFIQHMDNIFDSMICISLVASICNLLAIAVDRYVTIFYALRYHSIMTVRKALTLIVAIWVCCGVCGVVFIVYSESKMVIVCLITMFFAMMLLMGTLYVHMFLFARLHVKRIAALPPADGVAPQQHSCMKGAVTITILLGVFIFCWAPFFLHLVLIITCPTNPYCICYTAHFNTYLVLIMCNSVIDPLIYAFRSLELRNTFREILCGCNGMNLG
On to B1, for which the cAMP EC50 came out at 3.22 nM.
Still for that read-out and setting: as for B2, the figure is 0.465 nM; as for [dF]CH[d(Et)Tyr][hArg][Bip][βAla][dC]T-NH2 (disulfide 2-8) [D-Phe-c(Cys-His-D-(Et)Tyr-hArg-Bip-β-Ala-D-Cys)-Thr-NH2], 81.8 nM.
Molecule B3 displayed a cAMP Kb of 439.
The molecule B4 had a cAMP EC50 of 8.09 nM.
Molecule B5 came in with a cAMP Kb of 112.
For the molecule B6, the cAMP EC50 came to 0.199 nM.
The same measure, in the same setting: as for B7, the figure is 0.27 nM; as for B8, 13.1 nM.
Molecule B9 came in with a cAMP Kb of 25.6.
The molecule B10 came in with a cAMP EC50 of 32.4 nM.
